T1: RING1B (H. sapiens, UniProt Q99496 1-336)
T1 sequence: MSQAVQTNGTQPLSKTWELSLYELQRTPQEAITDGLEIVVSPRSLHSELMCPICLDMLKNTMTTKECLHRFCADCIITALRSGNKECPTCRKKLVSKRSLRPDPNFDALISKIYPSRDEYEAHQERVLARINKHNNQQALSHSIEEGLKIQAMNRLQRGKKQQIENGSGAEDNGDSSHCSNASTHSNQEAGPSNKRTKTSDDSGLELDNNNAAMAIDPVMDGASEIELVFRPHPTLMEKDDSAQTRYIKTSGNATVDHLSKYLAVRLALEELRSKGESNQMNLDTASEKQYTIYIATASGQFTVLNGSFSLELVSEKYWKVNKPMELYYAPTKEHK


Biological target: T1, RING1B
Assay: SEC

Binder	binding result
CBX7 (natural protein) MELSAIGEQVFAVESIRKKRVRKGKVEYLVKWKGWPPKYSTWEPEEHILDPRLVMAYEEKEERDRASGYRKRGPKPRRLLLQESAAPDVVQTPGDWEPMEQAPEEEAEADLTNGPPPWTPTLPSSEVTVTDITANSVTVTFREAQAAEGFFRDRNEKL	binds
CBX7(F11A) (natural protein) MELSAIGEQVAAVESIRKKRVRKGKVEYLVKWKGWPPKYSTWEPEEHILDPRLVMAYEEKEERDRASGYRKRGPKPRRLLLQESAAPDVVQTPGDWEPMEQAPEEEAEADLTNGPPPWTPTLPSSEVTVTDITANSVTVTFREAQAAEGFFRDRNEKL	binds
MBP-tagged BMI1 (natural protein) MHRTTRIKITELNPHLMCVLCGGYFIDATTIIECLHSFCKTCIVRYLETSKYCPICDVQVHKTRPLLNIRSDKTLQDIVYKLVPGLFKNEMKRRRDFYAAHPSADAANGSNEDRGEVADEDKRIITDDEIISLSIEFFDQNRLDRKVNKDKEKSKEEVNDKRYLRCPAAMTVMHLRKFLRSKMDIPNTFQIDVMYEEEPLKDYYTLMDIAYIYTWRRNGPLPLKYRVRPTCKRMKISHQRDGLTNAGELESDSGSDKANSPAGGIPSTSSCLPSPSTPVQSPHPQFPHISSTMNGTSNSPSGNHQSSFANRPRKSSVNGSSATSSG	binds

— doi:10.1101/2023.12.02.569699 (bioRxiv, 2023)
